Assay results from article PMC11481871, “Discovery of GuaB inhibitors with efficacy against Acinetobacter baumannii infection” (mBio, 2024).

Tests used:
[1] = molecular target: the molecule itself; assay: crystal structure; A. baumannii GuaBΔCBS (21 mg/mL) with 5 mM IMP, vapor diffusion at room temperature, 0.1 M HEPES pH 7.5, 20% isopropanol, 10% PEG4000; crystals soaked with inhibitor; space group P21, eight copies in the asu
[2] = molecular target: the molecule itself; assay: crystal structure; S. aureus GuaBΔCBS (27 mg/mL) with 5 mM IMP, vapor diffusion at room temperature, 0.1 M bicine pH 9.0, 0.1 M NaCl, 30% PEG550 MME; crystals soaked with inhibitor; space group I4, one molecule in the asu
[3] = molecular target: the molecule itself; assay: crystal structure; E. coli GuaBΔCBS (28 mg/mL) with 5 mM IMP, vapor diffusion at room temperature, 0.1 M bicine pH 9.0, 20% PEG 6000; crystals soaked with inhibitor; space group I4, one molecule in the asu

B1: A. baumannii GuaB with CBS domain deletion (M1-G488_ΔM93-R201) (enzyme)
chain: MLTIVQEALTFDDVLLLPAYSTVLPKDVSLKTRLTRGIYLNIPLVSAAMDTVTESRMAIAMAQNGGIGILHKNMDIAAQAAEVRRVKKFEAGKAESYPNSCKDDLGRLRVGAAVGTGADTPSRVEALVEAGVDVIVVDTAHGHSAGVIERVRWVKQNFPQVQVIGGNIATGDAALALLDAGADAVKVGIGPGSICTTRIVAGIGMPQISAIDSVASALKDQIPLIADGGIRFSGDMAKAIGAGASTIMVGSLLAGTEEAPGEVEFFQGRYYKAYRGMGSLGAMAGATGSADRYFQDSKAGAEKLVPEGIEGRVPYKGPMGNIVHQMMGGLRSSMGYTGSAVIEDLRQNAKFVKITSAGMSESHVHDVTITKEAPNYRVG
notes: cloned into a modified pET52b vector; Eight copies in the asymmetric unit (octamer of two tetramers); also called A. baumannii GuaBΔCBS; GuaBΔCBS; source: E. coli BL21 (DE3) Gold, purified (HisTrap FF, Superdex200 size-exclusion)
[1]
  stoichiometry N: 8

B2: S. aureus GuaBΔCBS (W2-F488_ΔE92-R219) (enzyme)
chain: WESKFAKESLTFDDVLLIPAQSDILPKDVDLSVQLSDKVKLNIPVISAGMDTVTESKMAIAMARQGGLGVIHKNMGVEEQADEVQKVKRSLLVAAAIGISKDTDIRAQKLVEAGVDVLVIDTAHGHSKGVIDQVKHIKKTYPEITLVAGNVATAEATKDLFEAGADIVKVGIGPGSICTTRVVAGVGVPQITAIYDCATEARKHGKAIIADGGIKFSGDIIKALAAGGHAVMLGSLLAGTEESPGATEIFQGRQYKVYRGMGSLGAMEKGSNDRYFQEDKAPKKFVPEGIEGRTAYKGALQDTIYQLMGGVRAGMGYTGSHDLRELREEAQFTRMGPAGLAESHPHNIQITKESPNYSF
notes: Crystallised with IMP and soaked with G1, G2 or G8; one molecule in the asymmetric unit, the tetramer arises from the fourfold axis of space group I4; also called S.a; GuaB; source: E. coli BL21 (DE3) Gold, purified (HisTrap FF, Superdex200 size-exclusion; same protocol as A. baumannii GuaBΔCBS)
[2]
  stoichiometry N: 4

B3: E. coli GuaBΔCBS (L2-S488_ΔE90-R217) (enzyme, Escherichia coli, UniProt P0ADG7 2-488, looked up)
chain: LRIAKEALTFDDVLLVPAHSTVLPNTADLSTQLTKTIRLNIPMLSAAMDTVTEARLAIALAQEGGIGFIHKNMSIERQAEEVRRVKKHLRVGAAVGAGAGNEERVDALVAAGVDVLLIDSSHGHSEGVLQRIRETRAKYPDLQIIGGNVATAAGARALAEAGCSAVKVGIGPGSICTTRIVTGVGVPQITAVADAVEALEGTGIPVIADGGIRFSGDIAKAIAAGASAVMVGSMLAGTEESPGEIELYQGRSYKSYRGMGSLGAMSKGSSDRYFQSDNAADKLVPEGIEGRVAYKGRLKEIIHQQMGGLRSCMGLTGCGTIDELRTKAEFVRISGAGIQESHVHDVTITKESPNYRLGS
notes: GuaB (inosine-5'-monophosphate dehydrogenase) of Escherichia coli, residues L2-S488 with the CBS domains (E90-R217) deleted; Crystallised with IMP and soaked with G1, G2 or G8; one molecule in the asymmetric unit, the tetramer arises from the fourfold axis of space group I4; also called E.c; GuaB; source: E. coli BL21 (DE3) Gold, purified (HisTrap FF, Superdex200 size-exclusion; same protocol as …)
[3]
  stoichiometry N: 4
